From patent publication US20180009871A1 (INTARCIA THERAPEUTICS, published 2018)
Where no end group is shown, it is not given here. [ ]: non-standard residue; d: D form. Aib = CC(C)(N)C(=O)O

Tests used:
[1] = target: human glucagon receptor (GCGR) (human, UniProt P47871 26-477); experiment: cell-based or functional assay
[2] = target: human GLP-1 receptor (GLP-1R) (human, UniProt P43220 24-463); experiment: cell-based or functional assay
human GLP-1 receptor (GLP-1R), sequence (P43220 24-463): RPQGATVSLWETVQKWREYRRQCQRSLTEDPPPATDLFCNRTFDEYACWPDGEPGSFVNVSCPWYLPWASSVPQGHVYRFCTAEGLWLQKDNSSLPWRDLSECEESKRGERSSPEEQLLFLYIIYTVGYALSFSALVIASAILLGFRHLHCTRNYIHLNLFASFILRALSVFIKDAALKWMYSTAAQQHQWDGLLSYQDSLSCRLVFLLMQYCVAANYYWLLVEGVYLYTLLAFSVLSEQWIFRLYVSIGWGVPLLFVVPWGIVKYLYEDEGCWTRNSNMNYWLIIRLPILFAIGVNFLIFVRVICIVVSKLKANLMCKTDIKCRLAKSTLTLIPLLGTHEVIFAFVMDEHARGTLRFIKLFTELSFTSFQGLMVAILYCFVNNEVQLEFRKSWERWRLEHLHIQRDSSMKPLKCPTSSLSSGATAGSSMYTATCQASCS

| Binder | hGCGR pEC50 (cAMP) [1] [pEC50] | hGLP1 pEC50 (cAMP) [2] [pEC50] |
| --- | --- | --- |
| YSHGTFTSDYSKYLD[Aib]KYAQEFV[Aib]WLEDEPSSGAPPPS-OH (N-terminus assumed; SMILES CC(C)C[C@H](NC(=O)[C@H](Cc1ccc(O)cc1)NC(=O)[C@H](CCCCN)NC(=O)[C@H](CO)NC(=O)[C@H](Cc1ccc(O)cc1)NC(=O)[C@H](CC(=O)O)NC(=O)[C@H](CO)NC(=O)[C@@H](NC(=O)[C@H](Cc1ccccc1)NC(=O)[C@@H](NC(=O)CNC(=O)[C@H](Cc1c[nH]cn1)NC(=O)[C@H](CO)NC(=O)[C@@H](N)Cc1ccc(O)cc1)[C@@H](C)O)[C@@H](C)O)C(=O)N[C@@H](CC(=O)O)C(=O)NC(C)(C)C(=O)N[C@@H](CCCCN)C(=O)N[C@@H](Cc1ccc(O)cc1)C(=O)N[C@@H](C)C(=O)N[C@@H](CCC(N)=O)C(=O)N[C@@H](CCC(=O)O)C(=O)N[C@@H](Cc1ccccc1)C(=O)N[C@H](C(=O)NC(C)(C)C(=O)N[C@@H](Cc1c[nH]c2ccccc12)C(=O)N[C@@H](CC(C)C)C(=O)N[C@@H](CCC(=O)O)C(=O)N[C@@H](CC(=O)O)C(=O)N[C@@H](CCC(=O)O)C(=O)N1CCC[C@H]1C(=O)N[C@@H](CO)C(=O)N[C@@H](CO)C(=O)NCC(=O)N[C@@H](C)C(=O)N1CCC[C@H]1C(=O)N1CCC[C@H]1C(=O)N1CCC[C@H]1C(=O)N[C@@H](CO)C(=O)O)C(C)C) [Compound A1] | 12.3 | 5.2 |
| YSHGTFTSDYSKYLD[Aib]KRAQEFVIWLEDEPSSGAPPPS-OH (N-terminus assumed; SMILES CC[C@H](C)[C@H](NC(=O)[C@@H](NC(=O)[C@H](Cc1ccccc1)NC(=O)[C@H](CCC(=O)O)NC(=O)[C@H](CCC(N)=O)NC(=O)[C@H](C)NC(=O)[C@H](CCCNC(=N)N)NC(=O)[C@H](CCCCN)NC(=O)C(C)(C)NC(=O)[C@H](CC(=O)O)NC(=O)[C@H](CC(C)C)NC(=O)[C@H](Cc1ccc(O)cc1)NC(=O)[C@H](CCCCN)NC(=O)[C@H](CO)NC(=O)[C@H](Cc1ccc(O)cc1)NC(=O)[C@H](CC(=O)O)NC(=O)[C@H](CO)NC(=O)[C@@H](NC(=O)[C@H](Cc1ccccc1)NC(=O)[C@@H](NC(=O)CNC(=O)[C@H](Cc1c[nH]cn1)NC(=O)[C@H](CO)NC(=O)[C@@H](N)Cc1ccc(O)cc1)[C@@H](C)O)[C@@H](C)O)C(C)C)C(=O)N[C@@H](Cc1c[nH]c2ccccc12)C(=O)N[C@@H](CC(C)C)C(=O)N[C@@H](CCC(=O)O)C(=O)N[C@@H](CC(=O)O)C(=O)N[C@@H](CCC(=O)O)C(=O)N1CCC[C@H]1C(=O)N[C@@H](CO)C(=O)N[C@@H](CO)C(=O)NCC(=O)N[C@@H](C)C(=O)N1CCC[C@H]1C(=O)N1CCC[C@H]1C(=O)N1CCC[C@H]1C(=O)N[C@@H](CO)C(=O)O) [Compound A4] | 11.8 | < 5 |
| YSHGTFTSDYSKYLDSARAQEFVKWLEDEPSSGAPPPS-NH2 [Compound A5] | 11.8 | 5.8 |
| YSQGTFTSDYSKYLDAARAQEFVKWLEDEPKSKSPPPS-NH2 [Compound A3] | 12.1 | 6.7 |
| YSHGTFTSDYSKYLD[Aib]KSAQEFV[Aib]WLEDEPSSGAPPPS-OH (N-terminus assumed; SMILES CC(C)C[C@H](NC(=O)[C@H](Cc1ccc(O)cc1)NC(=O)[C@H](CCCCN)NC(=O)[C@H](CO)NC(=O)[C@H](Cc1ccc(O)cc1)NC(=O)[C@H](CC(=O)O)NC(=O)[C@H](CO)NC(=O)[C@@H](NC(=O)[C@H](Cc1ccccc1)NC(=O)[C@@H](NC(=O)CNC(=O)[C@H](Cc1c[nH]cn1)NC(=O)[C@H](CO)NC(=O)[C@@H](N)Cc1ccc(O)cc1)[C@@H](C)O)[C@@H](C)O)C(=O)N[C@@H](CC(=O)O)C(=O)NC(C)(C)C(=O)N[C@@H](CCCCN)C(=O)N[C@@H](CO)C(=O)N[C@@H](C)C(=O)N[C@@H](CCC(N)=O)C(=O)N[C@@H](CCC(=O)O)C(=O)N[C@@H](Cc1ccccc1)C(=O)N[C@H](C(=O)NC(C)(C)C(=O)N[C@@H](Cc1c[nH]c2ccccc12)C(=O)N[C@@H](CC(C)C)C(=O)N[C@@H](CCC(=O)O)C(=O)N[C@@H](CC(=O)O)C(=O)N[C@@H](CCC(=O)O)C(=O)N1CCC[C@H]1C(=O)N[C@@H](CO)C(=O)N[C@@H](CO)C(=O)NCC(=O)N[C@@H](C)C(=O)N1CCC[C@H]1C(=O)N1CCC[C@H]1C(=O)N1CCC[C@H]1C(=O)N[C@@H](CO)C(=O)O)C(C)C) [Compound A2] | 11.7 | 5.4 |
| YSHGTFTSDYSKYLD[Aib]KLAQEFV[Aib]WLEDEPSSGAPPPS-OH (N-terminus assumed; SMILES CC(C)C[C@H](NC(=O)[C@H](CCCCN)NC(=O)C(C)(C)NC(=O)[C@H](CC(=O)O)NC(=O)[C@H](CC(C)C)NC(=O)[C@H](Cc1ccc(O)cc1)NC(=O)[C@H](CCCCN)NC(=O)[C@H](CO)NC(=O)[C@H](Cc1ccc(O)cc1)NC(=O)[C@H](CC(=O)O)NC(=O)[C@H](CO)NC(=O)[C@@H](NC(=O)[C@H](Cc1ccccc1)NC(=O)[C@@H](NC(=O)CNC(=O)[C@H](Cc1c[nH]cn1)NC(=O)[C@H](CO)NC(=O)[C@@H](N)Cc1ccc(O)cc1)[C@@H](C)O)[C@@H](C)O)C(=O)N[C@@H](C)C(=O)N[C@@H](CCC(N)=O)C(=O)N[C@@H](CCC(=O)O)C(=O)N[C@@H](Cc1ccccc1)C(=O)N[C@H](C(=O)NC(C)(C)C(=O)N[C@@H](Cc1c[nH]c2ccccc12)C(=O)N[C@@H](CC(C)C)C(=O)N[C@@H](CCC(=O)O)C(=O)N[C@@H](CC(=O)O)C(=O)N[C@@H](CCC(=O)O)C(=O)N1CCC[C@H]1C(=O)N[C@@H](CO)C(=O)N[C@@H](CO)C(=O)NCC(=O)N[C@@H](C)C(=O)N1CCC[C@H]1C(=O)N1CCC[C@H]1C(=O)N1CCC[C@H]1C(=O)N[C@@H](CO)C(=O)O)C(C)C) [Compound A78] | 10.8 | < 9 |
| YSHGTFTSDYSKYLD[Aib]KEAQEFV[Aib]WLEDEPSSGAPPPS-OH (N-terminus assumed; SMILES CC(C)C[C@H](NC(=O)[C@H](Cc1ccc(O)cc1)NC(=O)[C@H](CCCCN)NC(=O)[C@H](CO)NC(=O)[C@H](Cc1ccc(O)cc1)NC(=O)[C@H](CC(=O)O)NC(=O)[C@H](CO)NC(=O)[C@@H](NC(=O)[C@H](Cc1ccccc1)NC(=O)[C@@H](NC(=O)CNC(=O)[C@H](Cc1c[nH]cn1)NC(=O)[C@H](CO)NC(=O)[C@@H](N)Cc1ccc(O)cc1)[C@@H](C)O)[C@@H](C)O)C(=O)N[C@@H](CC(=O)O)C(=O)NC(C)(C)C(=O)N[C@@H](CCCCN)C(=O)N[C@@H](CCC(=O)O)C(=O)N[C@@H](C)C(=O)N[C@@H](CCC(N)=O)C(=O)N[C@@H](CCC(=O)O)C(=O)N[C@@H](Cc1ccccc1)C(=O)N[C@H](C(=O)NC(C)(C)C(=O)N[C@@H](Cc1c[nH]c2ccccc12)C(=O)N[C@@H](CC(C)C)C(=O)N[C@@H](CCC(=O)O)C(=O)N[C@@H](CC(=O)O)C(=O)N[C@@H](CCC(=O)O)C(=O)N1CCC[C@H]1C(=O)N[C@@H](CO)C(=O)N[C@@H](CO)C(=O)NCC(=O)N[C@@H](C)C(=O)N1CCC[C@H]1C(=O)N1CCC[C@H]1C(=O)N1CCC[C@H]1C(=O)N[C@@H](CO)C(=O)O)C(C)C) [Compound A79] | 10.2 | < 9 |
